# Assay results reported in the supplement of paper PMC11316812.
# ± gives the standard deviation of the averaged measurements.
# Legend:
# [1] = system: MCF7; assay: percentage of EdU-negative (G0-arrested) nuclei per well, 72 h; higher = more G0 arrest; conditions: reference: sequence is the full UniProt precursor, the tested protein was the secreted form or ectodomain
# [2] = system: hTERT-HMEC; assay: as above; conditions: reference: sequence is the full UniProt precursor, the tested protein was the secreted form or ectodomain
# [3] = protein concentration 0.0225 µM
# [4] = protein concentration 0.03125 µM
# [5] = protein concentration 0.3125 µM
# [6] = protein concentration 0.010165 µM
# [7] = protein concentration 0.10165 µM
# [8] = protein concentration 0.0357143 µM
# [9] = protein concentration 0.357143 µM
# [10] = protein concentration 0.0295 µM
# 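Note: secreted proteins added to cultured cells, EdU pulse at the end, nuclei found by Hoechst imaging, EdU status from nuclear versus surrounding ring intensity ratio, PBS as neutral control.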
Sequence,"percentage of EdU-negative [1, 3]",percentage of EdU-negative ([1]; protein concentration 0.225 µM),"percentage of EdU-negative [2, 3]",percentage of EdU-negative ([2]; protein concentration 0.225 µM),further results
MLDWRLASAHFILAVTLTLWSSGKVLSVDVTTTEAFDSGVIDVQSTPTVREEKSATDLTAKLLLLDELVSLENDVIETKKKRSFSGFGSPLDRLSAGSVDHKGKQRKVVDHPKRRFGIPMDRIGRNRLSNSRG,23.9 ± 2%,24.2 ± 1.3%,5.01 ± 0.71%,5.5 ± 0.22%,
MLFSALLLEVIWILAADGGQHWTYEGPHGQDHWPASYPECGNNAQSPIDIQTDSVTFDPDLPALQPHGYDQPGTEPLDLHNNGHTVQLSLPSTLYLGGLPRKYVAAQLHLHWGQKGSPGGSEHQINSEATFAELHIVHYDSDSYDSLSEAAERPQGLAVLGILIEVGETKNIAYEHILSHLHEVRHKDQKTSVPPFNLRELLPKQLGQYFRYNGSLTTPPCYQSVLWTVFYRRSQISMEQLEKLQGTLFSTEEEPSKLLVQNYRALQPLNQRMVFASFIQAGSSYTTGEMLSLGVGILVGCLCLLLAVYFIARKIRKKRLENRKSVVFTSAQATTEA [Q9ULX7],,,,,"percentage of EdU-negative [1, 4]: 24.3 ± 0.34%; percentage of EdU-negative [1, 5]: 24.31 ± 0.24%; percentage of EdU-negative [2, 4]: 4.94 ± 0.17%; percentage of EdU-negative [2, 5]: 4.94 ± 0.42%"
MLGARLRLWVCALCSVCSMSVLRAYPNASPLLGSSWGGLIHLYTATARNSYHLQIHKNGHVDGAPHQTIYSALMIRSEDAGFVVITGVMSRRYLCMDFRGNIFGSHYFDPENCRFQHQTLENGYDVYHSPQYHFLVSLGRAKRAFLPGMNPPPYSQFLSRRNEIPLIHFNTPIPRRHTRSAEDDSERDPLNVLKPRARMTPAPASCSQELPSAEDNSPMASDPLGVVRGGRVNTHAGGTGPEGCRPFAKFI [Q9GZV9],,,,,"percentage of EdU-negative [1, 6]: 24 ± 0.7%; percentage of EdU-negative [1, 7]: 27.2 ± 0.45%; percentage of EdU-negative [2, 6]: 4.81 ± 0.08%; percentage of EdU-negative [2, 7]: 12.96 ± 0.081%"
MLGIWTLLPLVLTSVARLSSKSVNAQVTDINSKGLELRKTVTTVETQNLEGLHHDGQFCHKPCPPGERKARDCTVNGDEPDCVPCQEGKEYTDKAHFSSKCRRCRLCDEGHGLEVEINCTRTQNTKCRCKPNFFCNSTVCEHCDPCTKCEHGIIKECTLTSNTKCKEEGSRSNLGWLCLLLLPIPLIVWVKRKEVQKTCRKHRKENQGSHESPTLNPETVAINLSDVDLSKYITTIAGVMTLSQVKGFVRKNGVNEAKIDEIKNDNVQDTAEQKVQLLRNWHQLHGKKEAYDTLIKDLKKANLCTLAEKIQTIILKDITSDSENSNFRNEIQSLV,,,,,"percentage of EdU-negative [1, 8]: 23.4 ± 1.9%; percentage of EdU-negative [1, 9]: 26.6 ± 0.71%; percentage of EdU-negative [2, 8]: 5.07 ± 0.45%; percentage of EdU-negative [2, 9]: 5.88 ± 1.1%"
MLGLPWKGGLSWALLLLLLGSQILLIYAWHFHEQRDCDEHNVMARYLPATVEFAVHTFNQQSKDYYAYRLGHILNSWKEQVESKTVFSMELLLGRTRCGKFEDDIDNCHFQESTELNNTFTCFFTISTRPWMTQFSLLNKTCLEGFH [Q9H4G1],,,,,"percentage of EdU-negative [1, 10]: 27.1 ± 2.6%; percentage of EdU-negative ([1]; protein concentration 0.295 µM): 28.28 ± 0.082%; percentage of EdU-negative [2, 10]: 4.64 ± 0.079%; percentage of EdU-negative ([2]; protein concentration 0.295 µM): 4.42 ± 0.36%"
MLGPCMLLLLLLLGLRLQLSLGIIPVEEENPDFWNREAAEALGAAKKLQPAQTAAKNLIIFLGDGMGVSTVTAARILKGQKKDKLGPEIPLAMDRFPYVALSKTYNVDKHVPDSGATATAYLCGVKGNFQTIGLSAAARFNQCNTTRGNEVISVMNRAKKAGKSVGVVTTTRVQHASPAGTYAHTVNRNWYSDADVPASARQEGCQDIATQLISNMDIDVILGGGRKYMFRMGTPDPEYPDDYSQGGTRLDGKNLVQEWLAKRQGARYVWNRTELMQASLDPSVTHLMGLFEPGDMKYEIHRDSTLDPSLMEMTEAALRLLSRNPRGFFLFVEGGRIDHGHHESRAYRALTETIMFDDAIERAGQLTSEEDTLSLVTADHSHVFSFGGYPLRGSSIFGLAPGKARDRKAYTVLLYGNGPGYVLKDGARPDVTESESGSPEYRQQSAVPLDEETHAGEDVAVFARGPQAHLVHGVQEQTFIAHVMAFAACLEPYTACDLAPPAGTTDAAHPGRSVVPALLPLLAGTLLLLETATAP,27.28 ± 0.045%,29.68 ± 0.2%,5.09 ± 0.15%,5.14 ± 0.97%,
MLGQVVTLILLLLLKVYQGKGCQGSADHVVSISGVPLQLQPNSIQTKVDSIAWKKLLPSQNGFHHILKWENGSLPSNTSNDRFSFIVKNLSLLIKAAQQQDSGLYCLEVTSISGKVQTATFQVFVFESLLPDKVEKPRLQGQGKILDRGRCQVALSCLVSRDGNVSYAWYRGSKLIQTAGNLTYLDEEVDINGTHTYTCNVSNPVSWESHTLNLTQDCQNAHQEFRFWPFLVIIVILSALFLGTLACFCVWRRKRKEKQSETSPKEFLTIYEDVKDLKTRRNHEQEQTFPGGGSTIYSMIQSQSSAPTSQEPAYTLYSLIQPSRKSGSRKRNHSPSFNSTIYEVIGKSQPKAQNPARLSRKELENFDVYS [Q9BZW8],25.82 ± 0.11%,26.1 ± 1.3%,5.21 ± 0.31%,6.56 ± 1.1%,
MLGVLELLLLGAAWLAGPARGQNETEPIVLEGKCLVVCDSNPTSDPTGTALGISVRSGSAKVAFSAIRSTNHEPSEMSNRTMIIYFDQVLVNIGNNFDSERSTFIAPRKGIYSFNFHVVKVYNRQTIQVSLMLNGWPVISAFAGDQDVTREAASNGVLIQMEKGDRAYLKLERGNLMGGWKYSTFSGFLVFPL,24.7 ± 1.6%,24.9 ± 2.3%,5.16 ± 0.97%,5.71 ± 0.24%,
